Test results as given in publication PMC9907810.

Target: SARS-CoV-2 S-2P (engineered Spike ectodomain trimer with two stabilizing proline mutations) (SARS-CoV-2)
Assay: […] (200 mM NaCl, 20 mM Tris-HCl pH 7.5), 4 °C; […]

Question: How did the stoichiometry N turn out when “SARS-CoV-2 S-2P (engineered Spike ectodomain trimer with two stabilizing proline mutations) (natural protein)” was run?
Answer: The stoichiometry N was 3.
